test: yeast display, Sf9 membrane polyspecificity reagent, FACS + sequencing; frameworks hold sequencing errors
Summary of the method: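 Sorting gates, low and high (top ~1%), were placed on anti-HA fluorescence to track expression and on streptavidin fluorescence to track reagent binding. A clone's polyreactivity label is taken from the gate it came out of. The reagent was 10% biotinylated, detergent-solubilized Sf9 membrane, applied for 1 hour at 4 °C to galactose-induced yeast display cells.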

| Sequence | polyreactivity (PSR sort gate) |
| --- | --- |
| QVQLVESGGGLVQAGGSLRLSCAASGGIFVRNAMLWYRQAPGKERELVAAISDTGGSTYYADSVKGRFTISRDNAKNTVYLQMNSLKPEDTAVYYCAADLSPEADDYDVGGWRFRYDYWGQGTQVTVSS | low polyreactivity |
| QVQLVESGGGLVQAGGSLRLSCAASGGIFVSYAMGWYRQAPGNERELVAAITSGGGTSYADSVKGRFTISRDNAKNTVYLQMNSLKPEDTAVYYCNADGYLAERFVIRLDEYRDYDYWGQGTQVTVSS | low polyreactivity |
| QVQLVESGGGLVQAGGSLRLSCAASGGIFVTYAMGWCRQAPGKERELVAAITSGDSTYYADSVKGRFTISRDNAKNPVYLQMNSLKPEDTAVYYCAVGSTDRVSAQGSYFTYDYWGQGTQVTVSS | low polyreactivity |
| QVQLVESGGGLVQAGGSLRLSCAASGGIFWFNAMGRYRQAPGKEREFVAAITWRGGSTYYADSVKGRFTISRDNAKNTVYLQMHSLKPEDTAVYYCAATYWWHRSSGWDRVEYWGQGTQVNVSS | high polyreactivity |
| QVQLVESGGGLVQAGGSLRLSCAASGGIFWTYAMGWYRQAPWKERELVATITSGGSTNYADSVKGRFTISRDNAKNTVYLQMNSLKPEDTAVYYCNADWWWGYGYWGQGTQVTVSS | low polyreactivity |
| QVQLVESGGGLVQAGGSLRLSCAASGGIFYDYAMGWYRQAPGKERELVAAISQSGGSTYYADSVKGRFTISRDNAKNTVYLQMNSLKPEDTAVYYCAADYLDSTYGYVYGWDDSWGQGTQVTVSS | low polyreactivity |
| QVQLVESGGGLVQAGGSLRLSCAASGGIFYGNVMGWYRHAPGKERELVADITSVGSTYYADSVKGRFTISRDNAKNTVYLQMNSLKPEDTAVYYCAAETYLVFSTWYGYDYCGQGTQVTVSS | low polyreactivity |
| QVQLVESGGGLVQAGGSLRLSCAASGGIFYGYALGWYRQAPGKERELVASITSDGSTYADSVKGRFTISRDNAKNTVYLQMNSLKPEDTAVYYCNKEILVIVTYDYWGQGTQVTVSS | low polyreactivity |
| QVQLVESGGGLVQAGGSLRLSCAASGGIFYGYAMGWYRQAPGKERELVAAISDSGGSTYYADSVKGRFTISRDNAKNTVYLQMNSLKPEDTAVYYCATDAPVGGYVSEGDYWGQGTQVTVSS | low polyreactivity |
| QVQLVESGGGLVQAGGSLRLSCAASGGIFYGYAMGWYRQAPGKERELVAAITTGGSTNYADSVKGRFTISRDNAKNTVYLQMNSLKPEDTAVYYCAAPVNRAQGPYARRVERYGYWGQGTQVTVSS | low polyreactivity |
| QVQLVESGGGLVQAGGSLRLSCAASGGIFYPYAMGWYRQAPGKERELVASIDVSDGSTYYADSVKGRFTISRDNAKNSVYLQMNSLKPEDTAVYYCAADRYSKAIDFEGDYWGQGTQVTVSS | low polyreactivity |
| QVQLVESGGGLVQAGGSLRLSCAASGGIISINAMGWYRQAPGKERELVAAISWGDGITYYADSVKGRFTTSRDNAKNTVYLLMTSLKPEDTAVYYCAKDIGTRLGPAGYDYWGQGTQVTVSS | low polyreactivity |
| QVQLVESGGGLVQAGGSLRLSCAASGGIISSYVMGWYRQAPGKERELVAAISRSGGSTYYADSVKGRFTISRDNAKNTVYLQMNSLKPEDTAVYFCAAVLQTRYNYWGQGTQVTVSS | high polyreactivity |
| QVQLVESGGGLVQAGGSLRLSCAASGGILNPNAMGWYRQAPGKERELVAAISNGGGTKYADSVKWRFTISRDNAKNTVYLQMNSLKPEDTAVYYCAARQWWSYDYWGKGTQVTVSS | high polyreactivity |
| QVQLVESGGGLVQAGGSLRLSCAASGGILPKYAMGWYRQAPGKERELVAAIDGGADSTYYADSVKGRFTISRDIAKNTVYLQLNSLKPEDTAVYFCGADGSLHAGHWRTYGYYYWGQGTQVTVSS | low polyreactivity |
| QVQLVESGGGLVQAGGSLRLSCAASGGILRQNTMGWYRQAPGKERELVAAISSSGGRTYYADSVKGRFTISRDNAKNTVYLQMNSLKPEDTAVYYCAAEVRLKYRGWTGDYWGQGTQVTVSS | high polyreactivity |
| QVQLVESGGGLVQAGGSLRLSCAASGGIPLYYVMGWYRQAPGKERELVADISGDDSTNYADSVKGRFTISRDNAKNTVYLQMNSLKPEDTAVYYCAADGWLWSFTGDGWWFDYWGQGTQVTVSS | low polyreactivity |
| QVQLVESGGGLVQAGGSLRLSCAASGGISYRYAMGWYRQAPGKERELVAAISGRGTSTYYADSVKGRFTISRDNAKNTVYLQMNSLKTEDTAVYYCNAQVGNFGYRSGGYDYWGQGTQVTVSS | high polyreactivity |
| QVQLVESGGGLVQAGGSLRLSCAASGGLFTAYTMGWYRQAPGKERELVAVISSGGGRTYYADSVKGRFTISRDNAKNSVYLQMNSRKPEDTAVYYCNARVYVSANKYDYWGQGTQVTVSS | high polyreactivity |
| QVQLVESGGGLVQAGGSLRLSCAASGGNFAEYVMGWYRQAPGKERELVAAIDWSGGSTYYADSVKGRFTISRDNAKNTVYLQMNSLKPEDTAVYYCNADGPLDRYEYWGQGTQVTVSS | low polyreactivity |
| QVQLVESGGGLVQAGGSLRLSCAASGGNFWIYTMGWYTQAPGKERELVASITRGGSTYADSVKGRFTISRDKAKNTVYLQMNSLKPEDTAVYYCNAEFRYPWFRWEYDHWGQGTQVTVSS | low polyreactivity |

| Sequence | polyreactivity (PSR sort gate) |
| --- | --- |
| QVQLVESGGGLVQAGGSLRLSCAASGGNFYLYAMGWYIQAPGKEREFVAAISSSGGSTNYADSVKGRFTFSRDNAKNTVYLQMNSLKAEDTAVYYCAARWLAFLDLGKTYEYWGQGTHVTVSS | high polyreactivity |
| QVQLVESGGGLVQAGGSLRLSCAASGGSSPNYAMGWYRQAPGKEREFVAGISRSGGSTYYADSVKGRFTISRDNAKNTVYLQMNSLKPEDTAVYVCAAARSRPYDYWGQGTQVTVSS | high polyreactivity |
| QVQLVESGGGLVQAGGSLRLSCAASGGTFAFYAMGWYRQAPGKERELVAAITSGGRTYYADSVKGRFTISRDNAKNTVYLQMKRLKPEDTAVYYCNADWVDHYYVGYDYWGQGTQVTVSS | low polyreactivity |
| QVQLVESGGGLVQAGGSLRLSCAASGGTFAGYAMGWYRQAPGKERELVAAISRSGGSTYYADSVKGRFTISRDNAKNTVYLQMNSLKPEDTAVYYCIAASRTKFDYWGQGTQVTVSS | high polyreactivity |
| QVQLVESGGGLVQAGGSLRLSCAASGGTFDSYAMGWYRQAHGKERELVAAITRRTSSTYYADSVKGRFTISRDNAKNTVYLQMHSLKPEDTAVYYCNADSYYYDHRDFGYWGQGTLVTVSS | high polyreactivity |
| QVQLVESGGGLVQAGGSLRLSCAASGGTFDYYAMGWYRQAPGKERELVAAISTSGGRTYYADSVKGRFTISRDNAKNTVYLQMNSLTPEDTAVYYCAALSRRAKYDSFYYWGQGTQVTVSS | high polyreactivity |
| QVQLVESGGGLVQAGGSLRLSCAASGGTFERNAMGWYIQAPGKERELVAGMSKISGRTYYADSVKGRFTISRDNAKNTVYLQMNCLKPEDTAVYYCNKVSRSSYGYWGQGTQVTVSS | high polyreactivity |
| QVQLVESGGGLVQAGGSLRLSCAASGGTFFQYAMGWYRQAPGKERELVAAITWSSGSTYYADSVKGRFTISRDNAKNTVYLQMNSLKPEDTAVYYDDYYTYGDYWGQGTQVTVSS | low polyreactivity |
| QVQLVESGGGLVQAGGSLRLSCAASGGTFFTNAMGWYRQAPGKERELVAAISRGGSSTYYADSVKGRFTISRDNAKNTVYLQMTSLKPEDTAVYYCNKAYHRRDSEFGYWGQGTQVTVSS | high polyreactivity |
| QVQLVESGGGLVQAGGSLRLSCAASGGTFGGNAMGWYRQAPGKERELVAAITDIGGSTYYADSVKGRFTISRDNAKNTVYLQMNSLKPEDTAVYYCAKDNVEVVGQWSSDEYDYWGQGTQVTVSS | low polyreactivity |
| QVQLVESGGGLVQAGGSLRLSCAASGGTFGKNAMGWYRQAPGKERELVAAITWSGARTFYADSVKGRFTISRDNAKNTVYLQMNSLKPEDTAVYYCAKGGTRFTRYEYWGQGTQVTVSS | high polyreactivity |
| QVQLVESGGGLVQAGGSLRLSCAASGGTFGKNAMGWYRQAPGKERELVAAITWSGARTFYADSVKGRFTISRDNAKNTVYLQMNSLKPEDTAVYYCGKGGTRFTRYEYWGQGTQVTVSS | high polyreactivity |
| QVQLVESGGGLVQAGGSLRLSCAASGGTFGRYAMGWYRQAPGKERELVAAITYGGGSTYYADSVKGRFTISRDNAKNTVYLQMNSLKPEDTAVYYCNKYASLRYWGQGTQVTVSS | high polyreactivity |
| QVQLVESGGGLVQAGGSLRLSCAASGGTFGSYTMGWYRQAPGKERELVAAISSGGGTDYADSVKGRFTISRDNAKNTVYLQMNSLIPEDTAVYYCYAKSYYAWGSVRYPQTFDYWGQGTQVTVSS | low polyreactivity |
| QVQLVESGGGLVQAGGSLRLSCAASGGTFGYNAMGWYRQAPGKERELVAAIRNCGSTYYADSVKGRFTISRDNAKNTVYLQMNSLKQEDTAVYYCAAKVYRKLNYWVQGTQVTVSS | high polyreactivity |
| QVQLVESGGGLVQAGGSLRLSCAASGGTFHSNAMGWYRQAPGKERELVAAISWSDDTTYYADSVKGRFTISRDNAKNTVYLQINSLKPDDTAVYYCATVFFVLPPSRFDSWGQGTQVTVSS | low polyreactivity |
| QVQLVESGGGLVQAGGSLRLSCAASGGTFKHYAMGWYRQAAGKERELVAAITRTGGSTYYADSVKGRYTISRDNAKNTVYLQMNSLKPEDTAVYYCAAQRPRGAYRHYDYWGQGTQVTVSS | high polyreactivity |
| QVQLVESGGGLVQAGGSLRLSCAASGGTFNANGMGWYRQAPGKERELVAAISQRAGRTYYADSVKGRFTISRDNAKNTVYLQMNSLKPEDTAVFYCAKRPTDRRFGSGYWGQGTQVTVSS | high polyreactivity |
| QVQLVESGGGLVQAGGSLRLSCAASGGTFNGNTMGWYRQAPGKERELVAVIDWSGGSTYYADSVKGRFTISRDNAKNTVYLQMNSLKPEDTAVYYCNADSDAQFREPKGLYYWGQGTQVTVSS | low polyreactivity |
| QVQLVESGGGLVQAGGSLRLSCAASGGTFPPNTMGWSRQAPGKEREFVAASTWRGSSTYYADSVKGRFTISRDKAKNTVYLQMNSLKPEDTAVYYCAARRAYERMGYWGQGTQVTVSS | high polyreactivity |
